Test results: publication PMC7129780 (Cytokine, 2019)

T1: IL10Rβ (UniProt Q08334 20-220)
T1 sequence (looked up): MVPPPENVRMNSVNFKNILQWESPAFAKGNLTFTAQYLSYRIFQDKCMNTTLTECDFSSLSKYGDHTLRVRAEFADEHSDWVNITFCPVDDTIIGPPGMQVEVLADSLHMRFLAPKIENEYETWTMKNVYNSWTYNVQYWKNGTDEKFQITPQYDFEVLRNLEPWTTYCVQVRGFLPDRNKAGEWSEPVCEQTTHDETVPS

T2: IFNλR1 (UniProt Q8IU57 21-228)
T2 sequence (looked up): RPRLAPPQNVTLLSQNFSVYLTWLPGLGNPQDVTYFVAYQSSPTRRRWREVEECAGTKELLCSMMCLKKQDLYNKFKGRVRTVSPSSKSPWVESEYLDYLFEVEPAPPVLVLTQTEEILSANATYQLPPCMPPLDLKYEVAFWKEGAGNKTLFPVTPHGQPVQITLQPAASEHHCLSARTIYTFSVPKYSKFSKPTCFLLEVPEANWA


What was measured:
[1] = molecular target: T1, IL10Rβ; test: BLI
[2] = molecular target: T2, IFNλR1; test: BLI

Binder	Kd [1] [nM]	Kd [2] [nM]
IFNλ4 variant M3 (P73N) (ligand, human, UniProt K9M1U5 22-179, looked up, biotinylated (site not stated) for BLI; N-glycans at N61 and at mutated P73N) AAPRRCLLSHYRSLEPRTLAAAKALRDRYEEEALSWGQRNCSFRPRRDPPRNSSCARLRHVARGIADAQAVLSGLHRSELLPGAGPILELLAAAGRDVAACLELARPGSSRKVPGAQKRRHKPRRADSPRCRKASVVFNLLRLLTWELRLAAHSGPCL	51	22
IFNλ4 WT purified from E. coli (eIFNλ4) (ligand, human, UniProt K9M1U5 22-179, looked up, biotinylated (site not stated) for BLI) AAPRRCLLSHYRSLEPRTLAAAKALRDRYEEEALSWGQRNCSFRPRRDPPRPSSCARLRHVARGIADAQAVLSGLHRSELLPGAGPILELLAAAGRDVAACLELARPGSSRKVPGAQKRRHKPRRADSPRCRKASVVFNLLRLLTWELRLAAHSGPCL	71	19

The next binders have a lower Kd [1] than those just listed; values first:

Kd [1] [nM]	Kd [2] [nM]	Binder
49	14	IFNλ4 variant M1 (L28N) (ligand, human, UniProt K9M1U5 22-179, looked up, biotinylated (site not stated) for BLI; N-glycan at N61; mutated L28N not glycosylated) AAPRRCNLSHYRSLEPRTLAAAKALRDRYEEEALSWGQRNCSFRPRRDPPRPSSCARLRHVARGIADAQAVLSGLHRSELLPGAGPILELLAAAGRDVAACLELARPGSSRKVPGAQKRRHKPRRADSPRCRKASVVFNLLRLLTWELRLAAHSGPCL
49	17	IFNλ4 variant M7 (L28N + P73N) (ligand, human, UniProt K9M1U5 22-179, looked up, biotinylated (site not stated) for BLI; N-glycans at N61 and at mutated P73N; mutated L28N not glycosylated) AAPRRCNLSHYRSLEPRTLAAAKALRDRYEEEALSWGQRNCSFRPRRDPPRNSSCARLRHVARGIADAQAVLSGLHRSELLPGAGPILELLAAAGRDVAACLELARPGSSRKVPGAQKRRHKPRRADSPRCRKASVVFNLLRLLTWELRLAAHSGPCL
